Reference: the DeepSol protein solubility set

Assay: soluble on expression in E. coli; label from the status in PepcDB or PDB records
With “GAMGMESLFPNKGEIIRELLKDPLILKNDSKRSNGSELELDSSDLLQREAILANELNILDNLKTFLNLIKEVKTNLNILELENCYYSLQSLRKKMRNNAAYLKQSFNFQQSISTYVDTLHLELVSTLYKILTNGFWKITENSIQFTPTVEWGKDKVHIEYDTFMDFVAQQYFPKGSLDNQAWFILDMTSADSQEQVRAKLNTIMKEYMNLSRIVSMIKNSIFISGKEISYENEKNILVFSKSSSHGQHCVSTVLTSFEAVCDFMLDGLAFRDRKTLSYELGPLFNTEFTKFVKNNASIILESLDSPLKNLVSVINNKLTRLVAKSEVTNWTHSGKEIQDLLMNKQLYYNLLLDKVLESHISEIRS” the “soluble on expression in E. coli” value was “soluble”.
For “GAPSQGATANAETQTTIPLGDTSQNALDWPGVYEGVLPCASCEGIQTTLTLQADNSFELKSIYLGKDESIFKVAGKFDWDSNGSKITLSDGSKYLVGENQLLMLDTEGNRITGGLAEHYILKKKGM”, the “soluble on expression in E. coli” value was “soluble”.
With “GAQRRNEIQVPDLDGYTTLKCDFHMHSVFSDGLVWPTVRVDEAYRDGLDAISLTEHIEYRPHKQDVVSDHNRSFDLCREQAEKLGILLIKGSEITRAMAPGHFNAIFLSDSNPLEQKDYKDAFREAKKQGAFMFWNHPGWDSQQPDTTKWWPEHTALYQEGCMHGIEVANGHLYMPEAIQWCLDKNLTMIGTSDIHQPIQTDYDFEKGEHRTMTFVFAKERSLQGIREALDNRRTAAYFHELLIGREDLLRPFFEKCVKIEEVSRNEQGVTLSITNVTDLVLKLKKTAHDTLLVYFRDMTLKPHTRYTVRIGFKQGIKGGDVNFEVTNFIVAPDKGLKYTISL” the “soluble on expression in E. coli” value was “soluble”.
With “GATCLSQYCADKARDGVCDEACNSHACQWDGGDCSLTMENPWANCSSPLPCWDYINNQCDELCNTVECLFDNFECQGNSKTCKYDKYCADHFKDNHCNQGCNSEECGWDGLDCAADQPENLAEGTLVIVVLMPPEQLLQDARSFLRALGTLLHTNLRIKRDSQGELMVYPYYGEVAGSKVFLEIDNRQCVQDSDHCFKNTDAAAALLASHAIQGTLSYPLVSVVSESLTPERTQ” the “soluble on expression in E. coli” value was “soluble”.
For “GCDLERYPLTDLSEETFWNSESNAELALTSLYRGSLTDGVEYNPSDWWSYHGMIMMEHLSDNAFDRRGENNPFFKISSGNLTADNAFIKRYWETSYKRIGYCNRFLVGIQNSSESEKKTRMIAEARFLRATQYFYLASYFKNVPLVENVLTGEEANNVTKTSQADILKWCVTEFTAAAADLPRFSAIPAGEAGRACKQAALAFLGRTCMLQKDWKSGAKAFHDIMELGDNAINANYQELFYPSTGTSNKENIFYIQYLENYLGTGLPQHALSAKDGGWSLVNPAADLYESYEFKDGTPFSYDDPRYDPSNLGKDRDPRLDYTIYYNGAIFMGTEYKMSPDYSAAKKEKLDYTSEASRTGFMMRKYFEESTPINDVQSANGLTPVIRYAEVLLGYLECLVEDNQTITQGILDETINAVRGRASVNMPPVTEVTPAKLREIVRHERRIELAMEGIRYWDIMRWGIAHEVLSQKIWGAPYPGSTQYATTTKEVDPTGNYRWYVGKRAFRNPTDYTWPIPQSEQNINPNLRD”, the “soluble on expression in E. coli” value was “soluble”.
In the case of “GDFIVVQSTTSTQNSGLLDHILPAFEAETGIEVRVVAVGTGQAIRNAANGDGDVLLVHAKAAEEKFVAEGWGVERFDVMYNDFVLVGPASDPAGVRGGSDIVAALSAIAGAEAPFASRGDDSGTHKAELRHWASAGIDVSAASGGWYRETGSGMGATLNLAAGMGAYALSDRATWIAFGNKGDLVVAVEGDARLFNQYGVILVNPAKHPGVKAEAGQRFIDWLTGDEGQAAIAGYTL”, the “soluble on expression in E. coli” value is reported as “not soluble”.
With “GDQPVINFGIISTESSQNLKSIWEPFLKDMSQQTGYQVKAFFAPDYAGIIQGMRFDKVDIAWYGNKAAMEAVDRAHGEIFAQTVAASGAPGYWSLLIANKDSKIDSLEDMLANAKSLTFGNGDPNSTSGYLVPGYYVFAKNNVDPVKAFKRTLNSSHEVNALAVANKQVDVATFNTEGMERLELTQPEKARQLKVIWKSPLIPGDPLVWRNNLSDEQKNKLRDFFFKYGANAEQKKVLADLQWSKFQASDDDQLLPIRQLELFKQRTDVANNANLGAEEKAAKLKALDEELAKLEKRMAEREQKTAANAG” the “soluble on expression in E. coli” value was “soluble”.
With “GDTKEQRILNHVLQHAEPGNAQSVLEAIDTYCEQKEWAMNVGDKKGKIVDAVIQEHQPSVLLELGAYCGYSAVRMARLLSPGARLITIEINPDCAAITQRMVDFAGMKDKVTLVVGASQDIIPQLKKKYDVDTLDMVFLDHWKDRYLPDTLLLEECGLLRKGTVLLADNVICPGAPDFLAHVRGSSCFECTHYQSFLEYREVVDGLEKAIYKGP” the “soluble on expression in E. coli” value was “soluble”.
